This passage reports reverse-splicing fitness results from the RNAGym collection of RNA variant scans (doi:10.1093/molbev/msab373).

Sequences and labels used below:
B1: Azoarcus group I ribozyme (parent)
chain: GUGCCUUGCGCCGGGAAACCACGCAAGGGAUGGUGUCAAAUUCGGCGAAACCUAAGCGCCCGCCCGGGCGUAUGGCAACGCCGAGCCAAGCUUCGGCGCCUGCGCCGAUGAAGGUGUAGAGACUAGACGGCACCCACCUAAGGCAAACGCUAUGGUGAAGGCAUAGUCCAGGGAGUGGCGAAAGUCACACAAACCGG

Variants of B1 are the subject of this series. In words: reverse-splicing fitness (ratio to wild type); higher = more active; in vitro selection; Mg2+ level not given. The method in brief: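 An in vitro group I ribozyme library with randomized positions was T7-transcribed and gel-purified. In triplicate, 10 pmol RNA in EPPS pH 7.5 was reacted with 50 pmoles of a 30-nt RNA substrate for 1 h at 37 °C across several added MgCl2 levels (1–48 mM), then stopped with EDTA. Products were reverse transcribed from a substrate-complementary primer, PCR-amplified and sequenced (HiSeq 4000). Fitness is a variant's read proportion after selection over that before, normalised to wild type.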
As for C82A A120C C150A C169U, the reverse-splicing fitness turned out to be 0.0147.
The same measure for C82A A120G C150G U176G: 0.00336; for C82A A120G C150G U176C: 0.00829; for C82A A120G C150G U176A: 0.00568.
To C82A A120C C150U belongs 0.0789; to C82A A120C C150G, 0.0157.
The same measure for C82A A120C C150A: 0.0224; for C82A A120G A145G C169U U176A: 0.022; for C82A A120G A145G C169U U176C: 0.0195.
Consider C82A A120G A145G C169U U176G, for which the reverse-splicing fitness amounted to 0.0046.
The same measure for C82A A120G C150U: 0.0158.
To C82A A120G C150A belongs 0.0107; to C82A A120G C150G, 0.00747.
Take C82A A120G C150G C169U U176C: the reverse-splicing fitness is 0.0133.
The same measure for C82A A120G C150G C169U U176G: 0.00654; for C82A A120G C150G C169U U176A: 0.0119; for C82A A120C C150A C169G U176G: 0.00627.
To C82A A120C C150A C169G U176A belongs 0.021.
To C82A A120C C150A C169G U176C belongs 0.0258; to C82A A120C C150G C169A U176G, 0.00817; to C82A A120C C150G C169A U176C, 0.0129.
On to C82A A120C C150G C169A U176A, for which the reverse-splicing fitness came to 0.0126.
The same measure for C82A A120C C150U C169A: 0.0105.
To C82A A120C C150U C169G belongs 0.00925.
To C82A A120C C150U C169U belongs 0.0173; to C82A A120G A145G U176G, 0.00561.
As to C82A A120G A145G U176C, the reverse-splicing fitness stood at 0.021.
To C82A A120G A145G U176A belongs 0.0143; to C82A A120G A145C C150G C169U U176G, 0.00438.
To C82A A120G A145C C150G C169U U176A belongs 0.0158; to C82A A120G A145C C150G C169U U176C, 0.0123; to C82A A120G A145U C150U C169A U176C, 0.0113.
The same measure for C82A A120G A145U C150U C169A U176A: 0.013; for C82A A120G A145U C150U C169A U176G: 0.00418; for C82A A120G A145C C150A C169U: 0.00736.
As to C82A A120G A145C C150A C169A, the reverse-splicing fitness was found to be 0.00694.
The same measure for C82A A120G A145C C150A C169G: 0.00852; for C82A A120G A145G C150U C169U U176C: 0.0172; for C82A A120G A145G C150U C169U U176A: 0.0182.
For C82A A120G A145G C150U C169U U176G, the reverse-splicing fitness worked out at 0.00463.
On to C82A A120G A145U C150G C169A U176C, for which the reverse-splicing fitness came out at 0.01.
On to C82A A120G A145U C150G C169A U176A, for which the reverse-splicing fitness came to 0.0097.
To C82A A120G A145U C150G C169A U176G belongs 0.00378; to C82A A120G A145C C150U C169A U176A, 0.0121.
The same measure for C82A A120G A145C C150U C169A U176C: 0.00527.
The same measure for C82A A120G A145C C150U C169A U176G: 0.00425.
Consider C82A A120C A145U C150U C169G U176A, for which the reverse-splicing fitness stood at 0.0129.
To C82A A120C A145U C150U C169G U176G belongs 0.00507; to C82A A120C A145U C150U C169G U176C, 0.0198; to C82A A120G A145G C150U C169A U176G, 0.00535.
Consider C82A A120G A145G C150U C169A U176A, for which the reverse-splicing fitness amounted to 0.016.
On to C82A A120G A145G C150U C169A U176C, for which the reverse-splicing fitness turned out to be 0.0196.
The same measure for C82A A120C C169G U176A: 0.0193; for C82A A120C C169G U176C: 0.0259.
To C82A A120C C169G U176G belongs 0.00508; to C82A A120G A145U C150U U176G, 0.00531.
The same measure for C82A A120G A145U C150U U176A: 0.0108; for C82A A120G A145U C150U U176C: 0.0158.
For C82A A120G A145G C150A U176G, the reverse-splicing fitness was 0.00779.
The same measure for C82A A120G A145G C150A U176A: 0.0108; for C82A A120G A145G C150A U176C: 0.0213.
For C82A A120G A145U C169U U176G, the reverse-splicing fitness was 0.00329.
To C82A A120G A145U C169U U176C belongs 0.0169; to C82A A120G A145U C169U U176A, 0.02; to C82A A120G A145U C169A U176C, 0.00947.
The same measure for C82A A120G A145U C169A U176A: 0.0104.
For C82A A120G A145U C169A U176G, the reverse-splicing fitness worked out at 0.00321.
To C82A A120C A145U C150U C169A belongs 0.00998; to C82A A120C A145U C150U C169G, 0.0103; to C82A A120C A145U C150U C169U, 0.0159.
The same measure for C82A A120G A145C C169A U176C: 0.00741.
To C82A A120G A145C C169A U176A belongs 0.00955; to C82A A120G A145C C169A U176G, 0.00327.
As for C82A A120G A145C C169U, the reverse-splicing fitness was 0.0141.
The same measure for C82A A120G A145C C169G: 0.0188; for C82A A120G A145C C169A: 0.0124; for C82A A120G: 0.0258.
The same measure for C82A A120G C150U C169G: 0.0157.
To C82A A120G C150U C169A belongs 0.0136; to C82A A120G A145U C150A U176A, 0.0108; to C82A A120G A145U C150A U176C, 0.0131.
Regarding C82A A120G A145U C150A U176G, the reverse-splicing fitness was determined as 0.00503.
The same measure for C82A A120C C150G C169G U176C: 0.00601.
To C82A A120C C150G C169G U176G belongs 0.00605.
